In patent publication US20160319321:
Where a chain is given by its changes, count along the chain named. Names may count otherwise. “And” between values parts separate entries of the source, which are not always exact repeats. Identical values can stand only once.

How the values were obtained:
[1] = target: T1, DVEPGQPLYDEGDR-[Arg34]GLP-1(9-37)
T1 chain: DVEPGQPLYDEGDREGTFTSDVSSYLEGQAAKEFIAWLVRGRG

[2] = target: T2, DVKPEQPLYDEGDR-[Arg34]GLP-1(9-37)
T2 chain: T1 chain with E3K, G5E

[3] = target: T3, DVKPGEPLYDDDDK-[Arg34]GLP-1(9-37)
T3 chain: T1 chain with E3K, Q6E, E11D, G12D, R14K

[4] = target: T4, DVKPGQELYDDDDK-[Arg34]GLP-1(9-37)
T4 chain: T1 chain with E3K, P7E, E11D, G12D, R14K

[5] = target: T5, DVKPGQPEYDDDDK-[Arg34]GLP-1(9-37)
T5 chain: T1 chain with E3K, L8E, E11D, G12D, R14K

[6] = target: T6, DVKPGQPEYDEGDR-[Arg34]GLP-1(9-37)
T6 chain: T1 chain with E3K, L8E

[7] = target: T7, DVKPGQPLADDDDK-[Arg34]GLP-1(9-37)
T7 chain: T1 chain with E3K, Y9A, E11D, G12D, R14K

[8] = target: T8, DVKPGQPLYDEGDR-[Arg34]GLP-1(9-37)
T8 chain: T1 chain with E3K

[9] = target: T9, Lys(Dnp)-ADEGDR-HAEGT-Lys(Abz)amide
T9 chain: KADEGDRHAEGTK

[10] = target: T10, Lys(Dnp)-DDGDR-EGTFT-Lys(Abz)amide
T10 chain: KDDGDREGTFTK

[11] = target: T11, Lys(Dnp)-DDGDR-HGTFT-Lys(Abz)amide
T11 chain: KDDGDRHGTFTK

[12] = target: T12, Lys(Dnp)-DDGDR-QGTFT-Lys(Abz)amide
T12 chain: KDDGDRQGTFTK

[13] = target: T13, Lys(Dnp)-DEGDR-HAEGT-Lys(Abz)amide
T13 chain: KDEGDRHAEGTK

[14] = target: T14, Lys(Dnp)-DEGDR-HGEGT-Lys(Abz)amide
T14 chain: KDEGDRHGEGTK

[15] = target: T15, Lys(Dnp)-DEGDR-HGTFT-Lys(Abz)amide
T15 chain: KDEGDRHGTFTK

[16] = target: T16, Lys(Dnp)-DFGDR-EGTFT-Lys(Abz)amide
T16 chain: KDFGDREGTFTK

[17] = target: T17, Lys(Dnp)-DFGDR-HGEGT-Lys(Abz)amide
T17 chain: KDFGDRHGEGTK

[18] = target: T18, Lys(Dnp)-DHGDR-HGEGT-Lys(Abz)amide
T18 chain: KDHGDRHGEGTK

[19] = target: T19, Lys(Dnp)-DLGDR-HAEGT-Lys(Abz)amide
T19 chain: KDLGDRHAEGTK

[20] = target: T20, Lys(Dnp)-DQGDR-EGTFT-Lys(Abz)amide
T20 chain: KDQGDREGTFTK

[21] = target: T21, Lys(Dnp)-DSGDR-HAEGT-Lys(Abz)amide
T21 chain: KDSGDRHAEGTK

[22] = target: T22, Lys(Dnp)-DSGDR-HGEGT-Lys(Abz)amide
T22 chain: KDSGDRHGEGTK

[23] = target: T23, Lys(Dnp)-DSGDR-HSQGT-Lys(Abz)amide
T23 chain: KDSGDRHSQGTK

[24] = target: T24, Lys(Dnp)-DSGDR-QGTFT-Lys(Abz)amide
T24 chain: KDSGDRQGTFTK

[25] = target: T25, Lys(Dnp)-DYGDR-HGEGT-Lys(Abz)amide
T25 chain: KDYGDRHGEGTK

[26] = target: T26, Lys(Dnp)-EAGDR-HGEGT-Lys(Abz)amide
T26 chain: KEAGDRHGEGTK

[27] = target: T27, Lys(Dnp)-EGGDR-EGTFT-Lys(Abz)amide
T27 chain: KEGGDREGTFTK

[28] = target: T28, Lys(Dnp)-ELGDR-EGTFT-Lys(Abz)amide
T28 chain: KELGDREGTFTK

[29] = target: T29, Lys(Dnp)-ELGDR-HAEGT-Lys(Abz)amide
T29 chain: KELGDRHAEGTK

[30] = target: T30, Lys(Dnp)-ESGDR-HAEGT-Lys(Abz)amide
T30 chain: KESGDRHAEGTK

[31] = target: T31, Lys(Dnp)-FEGDR-HAEGT-Lys(Abz)amide
T31 chain: KFEGDRHAEGTK

[32] = target: T32, Lys(Dnp)-HEGDR-HAEGT-Lys(Abz)amide
T32 chain: KHEGDRHAEGTK

[33] = target: T33, Lys(Dnp)-INDDRHAEGT-Lys(Abz)amide
T33 chain: XINDDRHAEGTX

[34] = target: T34, Lys(Dnp)-NEGDR-HAEGT-Lys(Abz)amide
T34 chain: KNEGDRHAEGTK

[35] = target: T35, Lys(Dnp)-PEGDR-HAEGT-Lys(Abz)amide
T35 chain: KPEGDRHAEGTK

[36] = target: T36, Lys(Dnp)-RDEGDR-HAEGT-Lys(Abz)amide
T36 chain: KRDEGDRHAEGTK

[37] = target: T37, Lys(Dnp)-TDEGDR-HAEGT-Lys(Abz)amide
T37 chain: KTDEGDRHAEGTK

[38] = target: T38, Lys(Dnp)-TEGDR-HAEGT-Lys(Abz)amide
T38 chain: KTEGDRHAEGTK

[39] = target: T39, Lys(Dnp)-VEGDR-HAEGT-Lys(Abz)amide
T39 chain: KVEGDRHAEGTK

[40] = target: T40, Lys(Dnp)-WDEGDR-HAEGT-Lys(Abz)amide
T40 chain: KWDEGDRHAEGTK

B1: bovine Enterokinase light chain variant (C112A, L134K, I135K) (protein)
chain: IVGGSDSREGAWPWVVALYFDDQQVCGASLVSRDWLVSAAHCVYGRNMEPSKWKAVLGLHMASNLTSPQIETRLIDQIVINPHYNKRRKNNDIAMMHLEMKVNYTDYIQPIALPEENQVFPPGRICSIAGWGAKKYQGSTADVLQEADVPLLSNEKCQQQMPEYNITENMVCAGYEAGGVDSCQGDSGGPLMCQENNRWLLAGVTSFGYQCALPNRPGVYARVPRFTEWIQSFLH
Work on B1 yielded an Activity (%) [1] of 951%, an Activity (%) [2] of 803% and an Activity (%) [3] of 162%. It also gave an Activity (%) [4] of 168%, an Activity (%) [5] of 158% and an Activity (%) [6] of 625%. For the same protein, the Activity (%) [7] was 134%, the Activity (%) [8] was 707% and the Activity (%) [9] was 100%. The Activity (%) [10] was 428%, the Activity (%) [11] was 402% and the Activity (%) [12] was 338%. For the same protein, the Activity (%) [13] was 1100% and 942%, the Activity (%) [14] was 736% and the Activity (%) [15] was 392%. For the same protein, the Activity (%) [16] was 419%, the Activity (%) [17] was 253% and the Activity (%) [18] was 526%. For the same protein, the Activity (%) [19] was 795% and 722%, the Activity (%) [20] was 412% and the Activity (%) [21] was 504% and 380%. It also gave an Activity (%) [22] of 282%, an Activity (%) [23] of 200% and an Activity (%) [24] of 125%. For the same protein, the Activity (%) [25] was 469%, the Activity (%) [26] was 275% and the Activity (%) [27] was 380%. For the same protein, the Activity (%) [28] was 396%, the Activity (%) [29] was 659% and the Activity (%) [30] was 557%. For the same protein, the Activity (%) [31] was 397%, the Activity (%) [32] was 468% and the Activity (%) [33] was 126%. It also gave an Activity (%) [34] of 457%, an Activity (%) [35] of 441% and an Activity (%) [36] of 222%. For the same protein, the Activity (%) [37] was 237%, the Activity (%) [38] was 393% and the Activity (%) [39] was 388%. For the same protein, the Activity (%) [40] was 181%.
